Data from US20090208522A1.
Values joined by “and” are separate entries in the source; they are usually repeats but may differ in a detail not shown here. Equal entries are not always repeated.

How the values were obtained:
[1] = target: GDF8 protein (R&D Systems Inc.) (UniProt O14793); experiment: cell-based or functional assay
[2] = target: TMV-FV7 (DJ5(12)-U1-GPAT coat protein fusion, from pLSB-FV7); experiment: indirect ELISA, antigen coated at 5 ug/mL
[3] = target: TMV U5 coat protein / TMV U5 virus (tobacco mild green mosaic virus (TMV U5)); experiment: indirect ELISA, antigen coated at 5 ug/mL
[4] = target: TMV U1 coat protein / wild-type TMV U1 virus (tobacco mosaic virus, strain U1) (UniProt P69687); experiment: indirect ELISA, antigen coated at 5 ug/mL
[5] = target: TMV-FV7 (DJ5(12)-U1-GPAT coat protein fusion, from pLSB-FV7); experiment: DAS ELISA, virion captured by PVAS 135D
[6] = target: TMV-FV7 (DJ5(12)-U1-GPAT coat protein fusion, from pLSB-FV7); experiment: DAS ELISA, PVAS 135D capture
[7] = target: Purified CHO-derived FLAG-tagged human GDF8 prohormone (precursor GDF8) (human) (UniProt O14793); experiment: ELISA, prohormone coated 250 ng/well, antibody diluted 1:80
[8] = target: Purified CHO-derived FLAG-tagged human GDF8 prohormone (precursor GDF8) (human) (UniProt O14793); experiment: indirect ELISA
[9] = target: TMV-FV7 (DJ5(12)-U1-GPAT coat protein fusion, from pLSB-FV7); experiment: DAS ELISA, virion captured by PVAS-135D
[10] = target: TMV U1 coat protein / wild-type TMV U1 virus (tobacco mosaic virus, strain U1) (UniProt P69687); experiment: DAS ELISA, virion captured by PVAS-135D
[11] = target: DJ5 (20) peptide conjugated to BSA (human); experiment: indirect ELISA, conjugate coated at 5 ug/mL
[12] = target: Purified CHO-derived FLAG-tagged human GDF8 prohormone (precursor GDF8) (human) (UniProt O14793); experiment: ELISA, prohormone coated 250 ng/well, antibody diluted 1:20
[13] = target: DJ6 peptide (GDF8 active region peptide 342-361) (human); experiment: ELISA, peptide coated 500 ng/well, antibody diluted 1:20
[14] = target: DJ3 peptide (GDF8 active region peptide 297-316) (human); experiment: as above
[15] = target: DJ4 peptide (GDF8 active region peptide 312-331) (human); experiment: as above
[16] = target: DJ5 peptide (GDF8 active region peptide 327-346) (human); experiment: as above
[17] = target: DJ2 peptide (GDF8 active region peptide 282-301) (human); experiment: as above
[18] = target: DJ1 peptide (GDF8 active region peptide 267-286) (human); experiment: as above
[19] = target: DJ7 peptide (GDF8 active region peptide 357-375) (human); experiment: as above
[20] = target: Purified CHO-derived FLAG-tagged human GDF8 prohormone (precursor GDF8) (human) (UniProt O14793); experiment: ELISA, prohormone coated 250 ng/well, antibody diluted 1:40
[21] = target: DJ6 peptide (GDF8 active region peptide 342-361) (human); experiment: ELISA, peptide coated 500 ng/well, antibody diluted 1:40
[22] = target: DJ3 peptide (GDF8 active region peptide 297-316) (human); experiment: as above
[23] = target: DJ4 peptide (GDF8 active region peptide 312-331) (human); experiment: as above
[24] = target: DJ5 peptide (GDF8 active region peptide 327-346) (human); experiment: as above
[25] = target: DJ2 peptide (GDF8 active region peptide 282-301) (human); experiment: as above
[26] = target: DJ1 peptide (GDF8 active region peptide 267-286) (human); experiment: as above
[27] = target: DJ7 peptide (GDF8 active region peptide 357-375) (human); experiment: as above
[28] = target: DJ6 peptide (GDF8 active region peptide 342-361) (human); experiment: ELISA, peptide coated 500 ng/well, antibody diluted 1:80
[29] = target: DJ3 peptide (GDF8 active region peptide 297-316) (human); experiment: as above
[30] = target: DJ4 peptide (GDF8 active region peptide 312-331) (human); experiment: as above
[31] = target: DJ5 peptide (GDF8 active region peptide 327-346) (human); experiment: as above
[32] = target: DJ2 peptide (GDF8 active region peptide 282-301) (human); experiment: as above
[33] = target: DJ1 peptide (GDF8 active region peptide 267-286) (human); experiment: as above
[34] = target: DJ7 peptide (GDF8 active region peptide 357-375) (human); experiment: as above
[35] = target: Purified CHO-derived FLAG-tagged human GDF8 prohormone (precursor GDF8) (human) (UniProt O14793); experiment: direct ELISA, response per pmole
[36] = target: Purified CHO-derived FLAG-tagged human GDF8 prohormone (precursor GDF8) (human) (UniProt O14793); experiment: indirect ELISA, proGDF8FLAG coated at 5 ug/mL
[37] = target: TMV-FV7 (DJ5(12)-U1-GPAT coat protein fusion, from pLSB-FV7); experiment: indirect ELISA, endpoint dilution

Question: What does the source list for “Normal goat IgG (purified from non-immunized goat sera, commercially purchased) (antibody)”?
Answer: % Inhibition of GDF8 Activity (in vitro transcriptional activation assay), 250 ug IgG [1]: 7%; % Inhibition of GDF8 Activity (in vitro transcriptional activation assay, A204 cells, luciferase reporter), 250 ug IgG [1]: 0%

Question: Which results are given for “Rat monoclonal antibody MAB788 (R&D Systems, anti-mouse GDF8)”?
Answer: endpoint dilution (reciprocal dilution) [2]: 4860; endpoint dilution (reciprocal dilution) [3]: < 20; endpoint dilution (reciprocal dilution) [4]: 1620; endpoint dilution (reciprocal dilution) [5]: 7290; fold lower endpoint dilution than for the GDF8 prohormone [6]: 3 fold; ELISA reactivity (OD 405/minute x 1000) (OD405/min x 1000) [7]: 132; endpoint dilution higher than for DJ5(20) BSA (log10) [8]: 2; endpoint dilution (reciprocal dilution) [9]: 14600; endpoint dilution (reciprocal dilution) [10]: 180; endpoint dilution (reciprocal dilution) [11]: 270; ELISA reactivity (OD 405/minute x 1000) (OD405/min x 1000) [12]: 132; ELISA reactivity (OD 405/minute x 1000) (OD405/min x 1000) [13]: 0; ELISA reactivity (OD 405/minute x 1000) (OD405/min x 1000) [14]: 0; ELISA reactivity (OD 405/minute x 1000) (OD405/min x 1000) [15]: 0; ELISA reactivity (OD 405/minute x 1000) (OD405/min x 1000) [16]: 133; ELISA reactivity (OD 405/minute x 1000) (OD405/min x 1000) [17]: 0; ELISA reactivity (OD 405/minute x 1000) (OD405/min x 1000) [18]: 4; ELISA reactivity (OD 405/minute x 1000) (OD405/min x 1000) [19]: 0; ELISA reactivity (OD 405/minute x 1000) (OD405/min x 1000) [20]: 127; ELISA reactivity (OD 405/minute x 1000) (OD405/min x 1000) [21]: 0; ELISA reactivity (OD 405/minute x 1000) (OD405/min x 1000) [22]: 0; ELISA reactivity (OD 405/minute x 1000) (OD405/min x 1000) [23]: 0; ELISA reactivity (OD 405/minute x 1000) (OD405/min x 1000) [24]: 118; ELISA reactivity (OD 405/minute x 1000) (OD405/min x 1000) [25]: 0; ELISA reactivity (OD 405/minute x 1000) (OD405/min x 1000) [26]: 0; ELISA reactivity (OD 405/minute x 1000) (OD405/min x 1000) [27]: 0; ELISA reactivity (OD 405/minute x 1000) (OD405/min x 1000) [28]: 0; ELISA reactivity (OD 405/minute x 1000) (OD405/min x 1000) [29]: 0; ELISA reactivity (OD 405/minute x 1000) (OD405/min x 1000) [30]: 0; ELISA reactivity (OD 405/minute x 1000) (OD405/min x 1000) [31]: 102; ELISA reactivity (OD 405/minute x 1000) (OD405/min x 1000) [32]: 0; ELISA reactivity (OD 405/minute x 1000) (OD405/min x 1000) [33]: 0; ELISA reactivity (OD 405/minute x 1000) (OD405/min x 1000) [34]: 0; fold higher response than to TMV-FV6 and TMV-FV7 [35]: 2 fold and 3 fold; endpoint dilution (reciprocal dilution) [36]: 21900; % Inhibition of GDF8 Activity (in vitro transcriptional activation assay), 0.1 ug IgG [1]: 0%; % Inhibition of GDF8 Activity (in vitro transcriptional activation assay), 1.8 ug IgG [1]: 0%; % Inhibition of GDF8 Activity (in vitro transcriptional activation assay), 3.1 ug IgG [1]: 7%; % Inhibition of GDF8 Activity (in vitro transcriptional activation assay), 6.3 ug IgG [1]: 17%; % Inhibition of GDF8 Activity (in vitro transcriptional activation assay), 12.5 ug IgG [1]: 47%; fold higher response than against the U1 coat protein [37]: 3 fold
